Reference: article PMC3025574 (Nucleic Acids Research, 2010)

Molecular target: Escherichia coli DNA gyrase B subunit (GyrB) (Escherichia coli, UniProt P0AES6 1-804)
Assay: SAXS

B1: GyrA-ΔCTD (mutant GyrA subunit lacking the CTDs, residues 1–523) (domain or fragment)
chain: MSDLAREITPVNIEEELKSSYLDYAMSVIVGRALPDVRDGLKPVHRRVLYAMNVLGNDWNKAYKKSARVVGDVIGKYHPHGDSAVYDTIVRMAQPFSLRYMLVDGQGNFGSIDGDSAAAMRYTEIRLAKIAHELMADLEKETVDFVDNYDGTEKIPDVMPTKIPNLLVNGSSGIAVGMATNIPPHNLTEVINGCLAYIDDEDISIEGLMEHIPGPDFPTAAIINGRRGIEEAYRTGRGKVYIRARAEVEVDAKTGRETIIVHEIPYQVNKARLIEKIAELVKEKRVEGISALRDESDKDGMRIVIEVKRDAVGEVVLNNLYSQTQLQVSFGINMVALHHGQPKIMNLKDIIAAFVRHRREVVTRRTIFELRKARDRAHILEALAVALANIDPIIELIRHAPTPAEAKTALVANPWQLGNVAAMLERAGDDAARPEWLEPEFGVRDGLYYLTEQQAQAILDLRLQKLTGLEHEKLLDEYKELLDQIAELLRILGSADRLMEVIREELELVREQFGDKRRTEITA
binding result: binds
